Reference: patent publication US20230295324A1 (published 2023)
Like-named read-outs stand apart in the source and are kept apart here. Each block holds one binder with its values, some of them ahead of it.

Legend:
[1] = target: T1, human PD-L1 on MDA-MB-231 cells (human, UniProt Q9NZQ7 19-290); test: FACS, MDA-MB-231 cells (human PD-L1)
T1 construct: whole, on cells
Method: This example is intended to investigate the in vitro binding activity of OX40×TAA bispecific antibodies obtained in Example 9 to tumor-associated antigens (TAAs). […] Briefly, those cells were digested, resuspended in a complete medium, and washed with PBS, and the cell density was adjusted to 1×10⁶ cells/ml with PBS. The cells were seeded in a 96-well V-bottom plate (Corning, #3894) at 100 μL/well, and centrifuged, and then the supernatant was discarded. Then, the test antibodies diluted in a 3-fold gradient were added at 100 μL/well. The cells were incubated at 4° C. for 1 h away from light. Thereafter, the cells in each well were rinsed twice with 100 μL of pre-cooled PBS, and centrifuged at 500 g at 4° C. for 5 min, and then the supernatant was discarded. […] The plate was incubated away from light at 4° C. for 30 min. The cells in each well were rinsed twice with 100 μL of pre-cooled PBS, and centrifuged at 500 g at 4° C. for 5 min, and then the supernatant was discarded. Finally, the cells in each well were resuspended in 200 μL of pre-cooled PBS, and the fluorescence signal values were read using NovoCyte flow cytometer (ACEA Biosciences).

[2] = target: T2, human OX40 on cells (CHO-K1/hu OX40) (human, UniProt P43489 29-277); test: FACS, CHO-K1/hu OX40 cells
T2 construct: whole, on cells; Also used here for OX40 on the HEK293/OX40/NF-kb reporter cells and on human T cells in the functional assays; also called CHO-K1/OX40; human OX40 cells
T2 sequence (looked up): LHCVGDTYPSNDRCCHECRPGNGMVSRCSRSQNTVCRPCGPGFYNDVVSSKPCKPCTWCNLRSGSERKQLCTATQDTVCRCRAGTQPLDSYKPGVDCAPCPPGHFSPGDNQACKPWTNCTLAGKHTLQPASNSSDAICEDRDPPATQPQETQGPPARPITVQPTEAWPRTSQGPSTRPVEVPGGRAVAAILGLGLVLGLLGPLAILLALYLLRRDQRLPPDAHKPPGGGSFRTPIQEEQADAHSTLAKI
Method: This example is intended to investigate the in vitro binding activity of OX40×TAA bispecific antibodies obtained in Example 9 to human OX40. The antibody binding assay at the cellular level was performed using a CHO-K1 cell strain overexpressing human OX40 (CHO-K1/hu OX40). Briefly, CHO-K1/hu OX40 cells were digested, resuspended in an F12K complete medium, and washed with PBS, and the cell density was adjusted to 1×10⁶ cells/ml with PBS. The cells were seeded in a 96-well V-bottom plate (Corning, #3894) at 100 μL/well, followed by the addition of test antibodies diluted in a 3-fold gradient at concentrations that were 2 times the final concentrations at 100 μL/well. The cells were incubated at 4° C. for 1 h away from light. Thereafter, the cells in each well were rinsed twice with 100 μL of pre-cooled PBS, and centrifuged at 500 g at 4° C. for 5 min, and then the supernatant was discarded. […] The plate was incubated away from light at 4° C. for 30 min. The cells in each well were rinsed twice with 100 μL of pre-cooled PBS, and centrifuged at 500 g at 4° C. for 5 min, and then the supernatant was discarded. Finally, the cells in each well were resuspended in 200 μL of pre-cooled PBS, and the fluorescence signal values were read using NovoCyte flow cytometer (ACEA Biosciences).

[3] = target: T3, human OX40 protein (Acro biosystem, #OX0-H5224) (human, UniProt P43489 29-216); test: ELISA, coated human OX40 protein
T3 construct: Bought recombinant protein
T3 sequence (looked up): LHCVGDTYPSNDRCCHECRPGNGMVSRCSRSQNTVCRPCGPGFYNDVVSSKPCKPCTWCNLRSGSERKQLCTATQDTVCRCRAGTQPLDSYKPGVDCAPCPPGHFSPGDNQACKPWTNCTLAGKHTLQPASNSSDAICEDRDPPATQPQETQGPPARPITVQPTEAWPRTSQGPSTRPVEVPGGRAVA

[4] = target: T3, human OX40 protein (Acro biosystem, …); test: ELISA, coated human OX40 protein; remark: listed apart in the source
Method: This example is intended to investigate the in vitro binding activity of the anti-OX40 HCAb monoclonal antibodies prepared in Example 1 to human and cynomolgus monkey OX40 proteins. The antibody binding assay at the protein level was performed using a human OX40 protein (Acro biosystem, #OX0-H5224) and a cynomolgus monkey OX40 protein (Novoprotein, #CB17). Briefly, a 384-well plate (PerkinElmer, #6007509) was coated with 1 μg/mL human OX40 protein and a cynomolgus monkey OX40 protein dissolved in PBS at 20 μL/well, and incubated at 4° C. overnight. The next day, the 384-well plate was washed three times with PBS containing 0.05% Tween (MEDICAGO, #09-9410-100), and blocked with PBS containing 2% milk (Bio-Rad, #170-6404) at 37° C. for 1 h. […] The plate was added with a stop buffer (BBI life sciences, #E661006-0200) at 20 μL/well, and read for OD₄₅₀₋₆₅₀ values using a plate reader (Molecular Devices, model: SpectraMax Plus). The values were analyzed with Graphad 8.0 and plotted.

[5] = target: T2, human OX40 on cells (CHO-K1/hu OX40); test: cell-based or functional assay
[6] = target: T4, cynomolgus monkey OX40 protein (Novoprotein, #CB17) (cynomolgus monkey); test: ELISA, coated cyno OX40 protein
T4 construct: Bought recombinant protein; also called cyno OX40

[7] = target: T2, human OX40 on cells (CHO-K1/hu OX40); test: FACS, blocking of biotin-human OX40L on CHO-K1/hu OX40 cells
[8] = target: T2, human OX40 on cells (CHO-K1/hu OX40); test: FACS, CHO-K1/hu OX40 cells; remark: listed apart in the source
How it was run: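 Binding of anti-human OX40 HCAb antibodies measured by flow cytometry on CHO-K1 cells stably overexpressing human OX40. Cells incubated with 3-fold serially diluted antibodies 1 h at 4 °C in the dark, washed, then secondary staining 30 min at 4 °C; fluorescence read by FACS.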

T1 sequence (Q9NZQ7 19-290): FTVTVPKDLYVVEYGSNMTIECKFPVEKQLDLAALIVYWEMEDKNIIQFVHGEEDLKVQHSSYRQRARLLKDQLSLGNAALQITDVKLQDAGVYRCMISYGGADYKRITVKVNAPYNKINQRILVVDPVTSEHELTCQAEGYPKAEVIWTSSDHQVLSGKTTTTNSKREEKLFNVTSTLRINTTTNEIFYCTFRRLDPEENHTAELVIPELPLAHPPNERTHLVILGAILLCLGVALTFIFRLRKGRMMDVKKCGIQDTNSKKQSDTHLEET

EC50 [1]: 1.04 nM
EC50 [2]: 3.98 nM
Maximum MFI [2]: 287000 MFI
B1: PR003789 (bispecific antibody, human IgG1, kappa, L234A L235A)
light: DIQMTQSPSTLSASVGDRVTVTCRASQSIYIWLAWYQQKPGKAPNLLIYKASSLETGVPSRFSGSGSGTEFTLTISSLQPDDFATYYCQQYYGSSRTFGQGTKVEIKRTVAAPSVFIFPPSDEQLKSGTASVVCLLNNFYPREAKVQWKVDNALQSGNSQESVTEQDSKDSTYSLSSTLTLSKADYEKHKVYACEVTHQGLSSPVTKSFNRGEC
heavy: EVQLVESGGGLVQPGGSLRLSCAASGFTFSSYWMSWVRQAPGKGLEWVANIKQEGSEKYYVDSVKGRFTISRDNAKNSLYLQMNSLRAEDTAVYYCARDRAVAGAFDIWGQGTMVTVSSASTKGPSVFPLAPSSKSTSGGTAALGCLVKDYFPEPVTVSWNSGALTSGVHTFPAVLQSSGLYSLSSVVTVPSSSLGTQTYICNVNHKPSNTKVDKKVEPKSCDKTHTCPPCPAPEAAGGPSVFLFPPKPKDTLMISRTPEVTCVVVDVSHEDPEVKFNWYVDGVEVHNAKTKPREEQYNSTYRVVSVLTVLHQDWLNGKEYKCKVSNKALGAPIEKTISKAKGQPREPQVYTLPPSREEMTKNQVSLTCLVKGFYPSDIAVEWESNGQPENNYKTTPPVLDSDGSFFLYSKLTVDKSRWQQGNVFSCSVMHEALHNHYTQKSLSLSPGAEPKSSDKTHTPPPPPEVQLLESGGGLVQPGGSLRLSCAASGFTFSSYAMSWVRQAPGKGLEWVSAISGRGGSTFYADSVRGRFTISRDNSKNTLYLQMNSLRAEDTAMYYCVDGTTGTTDVDYWGQGTLVTVSS
notes: IgG-VH tetravalent symmetric structure: PR000265 IgG (anti-PD-L1) with the VH of PR002067 at the C-terminus via linker H1_15; human IgG1 Fc (L234A, L235A, P329G); also called PD-L1xOX40 bispecific antibody

EC50 [3]: 0.0268 nM
Maximum OD [3]: 1.41 OD
EC50 [4]: < 0.05 nM
EC50, HEK293/OX40/NF-kb luciferase reporter [5]: 4.66 nM
Maximum fluorescence signal value, HEK293/OX40/NF-kb luciferase reporter [5]: 141000 luminescence
EC50 [6]: 0.0452 nM
Maximum OD [6]: 1.74 OD
IC50 [7]: 59.9 nM
Maximum inhibition rate (%) [7]: 19%
EC50 [8]: 3.18 nM
Maximum MFI [8]: 2240 MFI
B2: PR002055 (antibody, human IgG1, V domains shown)
VH: EVQLLESGGGLVQPGGSLRLSCAASGLTFSSYAMSWVRQAPGKGLEWISAISGGGGSTYYADSVRGRFTISRDNSKNTLYLQMNSLRAEDTAVYYCANGMTGSTDVDYWGQGTLVTVSS
notes: no light chain; also called anti-OX40 HCAb antibody
